2 molecules from article PMC11016868 can be followed below.

As a reminder, the Kd is the concentration at which binding is half-saturated.

One series has as its target PhoP (UniProt P71814 1-247). Put plainly: fluorescence polarization. (Fluorescence polarisation rises when a labelled molecule tumbles more slowly, as on binding a larger partner.)
For series [1], the target named is T1, MtrAC (MtrA DNA-binding domain) (UniProt P9WGM7 131-228).
T1 sequence: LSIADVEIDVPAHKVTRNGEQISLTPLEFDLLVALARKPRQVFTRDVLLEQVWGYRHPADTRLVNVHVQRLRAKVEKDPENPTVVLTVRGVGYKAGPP
Put plainly: fluorescence polarization.

B1: PhoP DNA (from PhoP-DNA complex, 5ED4) (dsDNA)
DNA 1: GATTCACAGCTGATTCACAGCATCTA
DNA 2: TAGATGCTGTGAATCAGCTGTGAATC
For the molecule B1, the binding result in the series with PhoP is listed as “binds”.

B2: dnaA promoter DNA (dsDNA)
DNA 1: GGCGGTGTAGTTATCACGCCGTTT
DNA 2: AAACGGCGTGATAACTACACCGCC
Take B2: the Kd in series [1] came out at 1.23 ± 0.26 µM.
